The values that follow come from US20170137467A1 (CHROMOTEK, published 2017).

Experiment in all cases: library pulldown, LC-MS of supernatant; ratio vs GFP-Nb control (0=captured, 1=not captured)
For one assay, the target named is T1, BC2T A6G (human).
T1 construct: position 6 library (BC2TA6X), row G
T1 peptide: Ac-PDRKAGVSHWQQ-NH2
An excerpt:
(§1) In total, 12 different BC2T libraries displaying all 20 proteinogenic amino acids in one single position of the peptide were used in immunoprecipitation experiments. […] The direct comparison with the GFP-Nb made it possible to determine the quantitative degree of peptide capture without the need of labeled standards. […] The more peptide was captured the more the value approximates 0. It was not possible to discriminate between isoleucine (I) and leucine (L) peptide versions since these peptides are isobaric.
(§2) To investigate the binding specificity of the BC2T and derived mutants peptide libraries for each amino acid position of the sequence […] (SEQ ID NO:4) were synthesized with acetyl and amide groups located at the N-termini or C-termini respectively (Intavis). […] Incubations were performed in 300 μl PBS/0.01% CHAPS for 1 h on a HulaMixer (Life Technologies). Subsequent to a centrifugation step 10 μl supernatant were analyzed in a LC-MS procedure. Peptides were separated using an UltiMate3000 RSLCnano System (Thermo Scientific), composed of a C18 PepMap100μ-Precolumn (300 μm×5 mm; particle size: 5 μm; pore size: 100 Å—Thermo Scientific) and a C18 analytical column (Acclaim Rapid Separation LC (RSLC) Column: 150 mm×5 mm; particle size: 2.2 μm; pore size: 100 Å—Thermo Scientific). A step gradient was applied starting at 8% and ending after 20 min at 30% eluent B (80% acetonitrile, 20% H₂O, 0.1% formic acid).

The next assay deals with T2, BC2T A6V (human).
T2 construct: position 6 library (BC2TA6X), row V
T2 peptide: Ac-PDRKAVVSHWQQ-NH2
Description: as §1, §2

For another assay, the target named is T3, BC2T A6(I/L1).
T3 construct: position 6 library (BC2TA6X), row I/L1
Description: as §1, §2

The target in the next assay is T4, BC2T A6(I/L2).
T4 construct: position 6 library (BC2TA6X), row I/L2
Description: as §1, §2

Another assay has as its target T5, BC2T V7A (human).
T5 construct: position 7 library, row A
T5 peptide: Ac-PDRKAAASHWQQ-NH2
Description: as §1, §2

A further assay deals with T6, BC2T V7G (human).
T6 construct: position 7 library, row G
T6 peptide: Ac-PDRKAAGSHWQQ-NH2
Description: as §1, §2

The next assay deals with T7, BC2T V7(I/L2).
T7 construct: position 7 library, row I/L2
Description: as §1, §2

In the next assay the target is T8, BC2T V7M (human).
T8 construct: position 7 library, row M
T8 peptide: Ac-PDRKAAMSHWQQ-NH2
Description: as §1, §2

The next assay addresses T9, BC2T D2A (human).
T9 construct: position 2 library, row A
T9 peptide: Ac-PARKAAVSHWQQ-NH2
Description: as §1, §2

A further assay addresses T10, BC2T D2G (human).
T10 construct: position 2 library, row G
T10 peptide: Ac-PGRKAAVSHWQQ-NH2
Description: as §1, §2

A further assay deals with T11, BC2T D2(I/L2).
T11 construct: position 2 library, row I/L2
Description: as §1, §2

The target in another assay is T12, BC2T D2M (human).
T12 construct: position 2 library, row M
T12 peptide: Ac-PMRKAAVSHWQQ-NH2
Description: as §1, §2

Another assay concerns the target T13, BC2T R3G (human).
T13 construct: position 3 library (BC2TR3X), row G
T13 peptide: Ac-PDGKAAVSHWQQ-NH2
Description: as §1, §2

The next assay deals with T14, BC2T R3M (human).
T14 construct: position 3 library (BC2TR3X), row M
T14 peptide: Ac-PDMKAAVSHWQQ-NH2
Description: as §1, §2

Another assay deals with T15, BC2T P1A (human).
T15 construct: position 1 library, row A
T15 peptide: Ac-ADRKAAVSHWQQ-NH2
Description: as §1, §2

A further assay addresses T16, BC2T P1G (human).
T16 construct: position 1 library, row G
T16 peptide: Ac-GDRKAAVSHWQQ-NH2
Description: as §1, §2

The target in a further assay is T17, BC2T K4G (human).
T17 construct: position 4 library, row G
T17 peptide: Ac-PDRGAAVSHWQQ-NH2
Description: as §1, §2

The target in another assay is T18, BC2T K4V (human).
T18 construct: position 4 library, row V
T18 peptide: Ac-PDRVAAVSHWQQ-NH2
Description: as §1, §2

A further assay concerns the target T19, BC2T K4(I/L2).
T19 construct: position 4 library, row I/L2
Description: as §1, §2

In another assay the target is T20, BC2T K4M (human).
T20 construct: position 4 library, row M
T20 peptide: Ac-PDRMAAVSHWQQ-NH2
Description: as §1, §2

Another assay addresses T21, BC2T P1V (human).
T21 construct: position 1 library, row V
T21 peptide: Ac-VDRKAAVSHWQQ-NH2
Description: as §1, §2

In another assay the target is T22, BC2T A5G (human).
T22 construct: position 5 library, row G
T22 peptide: Ac-PDRKGAVSHWQQ-NH2
Description: as §1, §2

The target in another assay is T23, BC2T A5M (human).
T23 construct: position 5 library, row M
T23 peptide: Ac-PDRKMAVSHWQQ-NH2
Description: as §1, §2

B1: BC2 nanobody (BC2-Nb) (VHH)
VHH: QVQLVESGGGLVQPGGSLTLSCTASGFTLDHYDIGWFRQAPGKEREGVSCINNSDDDTYYADSVKGRFTIFMDNAKDTVYLQMNSLKPEDTAIYYCAEARGCKRGRYEYDFWGQGTQVTVSS
notes: immobilised on agarose/sepharose beads in this assay; also called BC2 nanotrap (immobilised form); not shown: C-terminal 6xHis-tag added by pHEN6 vector
On to B1, for which the ratio was determined as 0.7 in the assay with BC2T A6G; 0.3 with BC2T A6V; 0.7 in the assay with BC2T A6(I/L1); 0.9 in the assay with BC2T A6(I/L2); 0.4 with BC2T V7A; 0.7 in the assay with BC2T V7G. Further, the ratio in the assay with BC2T V7(I/L2) turned out to be 0.2; in the assay with BC2T V7M, 0.3; in the assay with BC2T D2A, 0.2; with BC2T D2G, 0.3; with BC2T D2(I/L2), 0.2; with BC2T D2M, 0.1. Moreover, the ratio was found to be 0.9 with BC2T R3G; 0.7 in the assay with BC2T R3M; 0.1 with BC2T P1A; 0.4 with BC2T P1G; 0.6 with BC2T K4G; 0.1 in the assay with BC2T K4V. The ratio in the assay with BC2T K4(I/L2) was determined as 0.2; with BC2T K4M, 0.1; in the assay with BC2T P1V, 0.2; in the assay with BC2T A5G, 0.3; with BC2T A5M, 0.1.

B2: BC2-NbR106S (VHH)
VHH: QVQLVESGGGLVQPGGSLTLSCTASGFTLDHYDIGWFRQAPGKEREGVSCINNSDDDTYYADSVKGRFTIFMDNAKDTVYLQMNSLKPEDTAIYYCAEARGCKRGSYEYDFWGQGTQVTVSS
notes: immobilised on beads in this assay; not shown: C-terminal 6xHis-tag added by pHEN6 vector
Consider B2, for which the ratio in the assay with BC2T A6G was 0.9; with BC2T A6V it was 0.6; with BC2T A6(I/L1) it was 0.8; with BC2T A6(I/L2) it was 0.9; with BC2T V7A, 0.7; with BC2T V7G, 0.8. Besides, the ratio in the assay with BC2T V7(I/L2) came to 0.4; in the assay with BC2T V7M it was 0.5; in the assay with BC2T D2A, 0.4; in the assay with BC2T D2G, 0.5; with BC2T D2(I/L2), 0.3; with BC2T D2M, 0.2. The ratio with BC2T R3G stood at 1; in the assay with BC2T R3M, 0.9; with BC2T P1A, 0.3; in the assay with BC2T P1G, 0.6; in the assay with BC2T K4G, 0.9; in the assay with BC2T K4V, 0.2. Further, the ratio in the assay with BC2T K4(I/L2) was 0.6; in the assay with BC2T K4M it was 0.5; in the assay with BC2T P1V it was 0.4; with BC2T A5G, 0.5; with BC2T A5M, 0.2.

B3: BC2-NbR106E (VHH)
VHH: QVQLVESGGGLVQPGGSLTLSCTASGFTLDHYDIGWFRQAPGKEREGVSCINNSDDDTYYADSVKGRFTIFMDNAKDTVYLQMNSLKPEDTAIYYCAEARGCKRGEYEYDFWGQGTQVTVSS
notes: as for B2
Turning to B3, the ratio with BC2T A6G turned out to be 0.8; with BC2T A6V, 0.3; in the assay with BC2T A6(I/L1), 0.7; with BC2T A6(I/L2), 0.8; in the assay with BC2T V7A it was 0.5; with BC2T V7G it was 0.7. Moreover, the ratio with BC2T V7(I/L2) is 0.2; in the assay with BC2T V7M, 0.3; in the assay with BC2T D2A it was 0.2; with BC2T D2G, 0.4; in the assay with BC2T D2(I/L2) it was 0.2; with BC2T D2M, 0.1. The ratio turned out to be 1 in the assay with BC2T R3G; 0.9 with BC2T R3M; 0.2 with BC2T P1A; 0.5 in the assay with BC2T P1G; 0.9 with BC2T K4G; 0.1 in the assay with BC2T K4V. Besides, the ratio worked out at 0.5 with BC2T K4(I/L2); 0.3 with BC2T K4M; 0.3 with BC2T P1V; 0.4 with BC2T A5G; 0.1 in the assay with BC2T A5M.
